Test results reported in patent publication US20120021972A1 (CADILA HEALTHCARE, published 2012).
Starred links: 1 amine or outer side, 2 acyl side, 3 side chain; linkers in the order of their positions; H or OH if unused. Non-standard residues stand in square brackets, D forms with d. No end group written: not given here. *: point of attachment. NMe2F‑APPA = N-methyl-2-amino-5-(2-fluorophenyl)pentanoic acid, CN([C@@H](CCCc1ccccc1F)C(=O)[*:2])[*:1]; 2,4‑diF‑APPA = 2-amino-5-(2,4-difluorophenyl)pentanoic acid, O=C([C@H](CCCc1ccc(F)cc1F)N[*:1])[*:2]; AMCB = 2-amino-5-(4-chloro-2-methylphenyl)pentanoic acid, Cc1cc(Cl)ccc1CCC[C@H](N[*:1])C(=O)[*:2]; ACPP = 2-amino-5-(3-chlorophenyl)pentanoic acid, O=C([C@H](CCCc1cccc(Cl)c1)N[*:1])[*:2]; 2F,4CF3‑APPA = 2-amino-5-(2-fluoro-4-(trifluoromethyl)phenyl)pentanoic acid; Bip(2'-Et-4'-OMe) = CCc1cc(OC)ccc1-c1ccc(C[C@H](N)C(=O)O)cc1; Nva(5-(3,5-Me2Ph)) = Cc1cc(C)cc(CCC[C@H](N)C(=O)O)c1; 2F‑APPA = 2-amino-5-(2-fluorophenyl)pentanoic acid; αMePhe(2-F) = C[C@](N)(Cc1ccccc1F)C(=O)O; NMeBip(OMe) = N-methylated Bip(OMe); hhPhe = N[C@@H](CCCc1ccccc1)C(=O)O; 2,4‑diCl‑APPA = not defined here; NMeD = CN[C@@H](CC(=O)O)C(=O)O; aThr = C[C@H](O)[C@H](N)C(=O)O; αMeP = C[C@@]1(C(=O)O)CCCN1; NMeAPPA = not defined here; Ac5c = NC1(C(=O)O)CCCC1; CNB = not defined here; Aib = CC(C)(N)C(=O)O; Moc = COC(=O)*

The binders below were run against human glucagon receptor (human, UniProt P47871 26-477) (assay: cell-based or functional assay).

Binder	inhibition of cAMP production, 1 nM	inhibition of cAMP production, 10 nM	inhibition of cAMP production, 100 nM	inhibition of cAMP production, 1 µM	inhibition of cAMP production, 10 µM
Moc-H[Aib]QGT[αMePhe(2-F)]TSD[Bip(2'-Et-4'-OMe)][2F‑APPA] (also: thioamide bonds between residues 9-10 and 10-11) [Seq. ID. No. 172: CH3OCO-H-Aib-QGT-(α-Me-2F-Phe)-TSD-(C═S)-Bip(OMe)-(C═S)-(2F-APPA)]	4 pmol/ml/µg prt	2 pmol/ml/µg prt	0 pmol/ml/µg prt	0 pmol/ml/µg prt	0 pmol/ml/µg prt
H[Ac5c]QGTFTSD[Bip(2'-Et-4'-OMe)][AMCB] [Seq. ID. No. 28: H-(APP)-QGTFTSD-Bip(OMe)-(AMCB)]	14 pmol/ml/µg prt	11 pmol/ml/µg prt	7 pmol/ml/µg prt	3 pmol/ml/µg prt	0 pmol/ml/µg prt
Ac-H[Aib]QGT[αMePhe(2-F)]TSD[Bip(2'-Et-4'-OMe)][2F‑APPA] (also: reduced (CH2) bonds between 9-10 and 10-11) [Seq. ID. No. 195: CH3CO-H-Aib-QGT-(α-Me-2F-Phe)-TSD-(CH2)-Bip(OMe)-(CH2)-(2F-APPA)]	15 pmol/ml/µg prt	12 pmol/ml/µg prt	8 pmol/ml/µg prt	4 pmol/ml/µg prt	2 pmol/ml/µg prt
Ac-H[Aib]QG[aThr][αMePhe(2-F)][aThr]SD[Bip(2'-Et-4'-OMe)][hhPhe] (also: reduced (CH2) bonds between 9-10 and 10-11) [Seq. ID. No. 197: CH3CO-H-Aib-QG-T(allo)-(α-Me-2F-Phe)-T(allo)-SD-(CH2)-Bip(OMe)-(CH2)-(APPA)]	14 pmol/ml/µg prt	11 pmol/ml/µg prt	7 pmol/ml/µg prt	3 pmol/ml/µg prt	0 pmol/ml/µg prt
Ac-H[Aib]QG[aThr][αMePhe(2-F)][aThr]SD[Bip(2'-Et-4'-OMe)][2F‑APPA] (also: reduced (CH2) bonds between 9-10 and 10-11) [Seq. ID. No. 199: CH3CO-H-Aib-QG-T(allo)-(α-Me-2F-Phe)-T(allo)-SD-(CH2)-Bip(OMe)-(CH2)-(2F-APPA)]	4 pmol/ml/µg prt	3 pmol/ml/µg prt	0 pmol/ml/µg prt	0 pmol/ml/µg prt	0 pmol/ml/µg prt
H[Aib][CNB]GTFTSD[Bip(2'-Et-4'-OMe)][ACPP] (reading uncertain) [Seq. ID. No. 31: H-Aib-(CNB)-GTFTSD-Bip(OMe)-(ACPP)]	6 pmol/ml/µg prt	5 pmol/ml/µg prt	2 pmol/ml/µg prt	0 pmol/ml/µg prt	0 pmol/ml/µg prt
H[Aib][CNB]G[aThr][αMePhe(2-F)][aThr]SD[Bip(2'-Et-4'-OMe)][2F‑APPA] (reading uncertain; also: reduced (CH2) bond between 10 and 11) [Seq. ID. No. 192: H-Aib-(CNB)-G-T(allo)-(α-Me-2F-Phe)-T(allo)-SD-Bip(OMe)-(CH2)-(2F-APPA)]	4 pmol/ml/µg prt	2 pmol/ml/µg prt	0 pmol/ml/µg prt	0 pmol/ml/µg prt	0 pmol/ml/µg prt
H[Aib][CNB]G[aThr][αMePhe(2-F)][aThr]SD[Bip(2'-Et-4'-OMe)][NMe2F‑APPA] (reading uncertain) [Seq. ID. No. 132: H-Aib-(CNB)-G-T(allo)-(α-Me-2F-Phe)-T(allo)-SD-Bip(OMe)-((NMe)(2F-APPA))]	15 pmol/ml/µg prt	12 pmol/ml/µg prt	8 pmol/ml/µg prt	4 pmol/ml/µg prt	2 pmol/ml/µg prt
H[αMeP]QGTFTSD[Bip(2'-Et-4'-OMe)][hhPhe] [Seq. ID. No. 9: H-(α-Me-Pro)-QGTFTSD-Bip(OMe)-(APPA)]	5 pmol/ml/µg prt	3 pmol/ml/µg prt	0 pmol/ml/µg prt	0 pmol/ml/µg prt	0 pmol/ml/µg prt
H[Aib]QG[aThr][αMePhe(2-F)][aThr]SD[Bip(2'-Et-4'-OMe)][hhPhe] (also: reduced (CH2) bond between 10 and 11) [Seq. ID. No. 189: H-Aib-QG-T(allo)-(α-Me-2F-Phe)-T(allo)-SD-Bip(OMe)-(CH2)-(APPA)]	3 pmol/ml/µg prt	1 pmol/ml/µg prt	0 pmol/ml/µg prt	0 pmol/ml/µg prt	0 pmol/ml/µg prt
HSQGTFTSD[Bip(2'-Et-4'-OMe)][2,4‑diCl‑APPA] (reading uncertain) [Seq. ID. No. 51: HSQGTFTSD-Bip(OMe)-(2,4-diCl-APPA)]	5 pmol/ml/µg prt	3 pmol/ml/µg prt	0 pmol/ml/µg prt	0 pmol/ml/µg prt	0 pmol/ml/µg prt
HSQGTFTSD[Bip(2'-Et-4'-OMe)][2F,4CF3‑APPA] [Seq. ID. No. 49: HSQGTFTSD-Bip(OMe)-(2F, 4CF3-APPA)]	10 pmol/ml/µg prt	8 pmol/ml/µg prt	6 pmol/ml/µg prt	2 pmol/ml/µg prt	0 pmol/ml/µg prt
H[Ac5c]QGTFTSD[Bip(2'-Et-4'-OMe)][Nva(5-(3,5-Me2Ph))] [Seq. ID. No. 26: H-(APP)-QGTFTSD-Bip(OMe)-(ADMP)]	15 pmol/ml/µg prt	12 pmol/ml/µg prt	8 pmol/ml/µg prt	4 pmol/ml/µg prt	2 pmol/ml/µg prt
H[Aib][CNB]G[aThr][αMePhe(2-F)][aThr]SD[NMeBip(OMe)][NMeAPPA] (reading uncertain) [Seq. ID. No. 142: H-Aib-(CNB)-G-T(allo)-(α-Me-2F-Phe)-T(allo)-SD-((NMe)Bip(OMe))-((NMe)(APPA))]	10 pmol/ml/µg prt	8 pmol/ml/µg prt	6 pmol/ml/µg prt	2 pmol/ml/µg prt	0 pmol/ml/µg prt
Moc-H[Aib]QGT[αMePhe(2-F)]TSD[Bip(2'-Et-4'-OMe)][hhPhe] (also: thioamide bonds between residues 9-10 and 10-11) [Seq. ID. No. 170: CH3OCO-H-Aib-QGT-(α-Me-2F-Phe)-TSD-(C═S)-Bip(OMe)-(C═S)-(APPA)]	6 pmol/ml/µg prt	5 pmol/ml/µg prt	2 pmol/ml/µg prt	0 pmol/ml/µg prt	0 pmol/ml/µg prt
Moc-H[Aib]QG[aThr][αMePhe(2-F)][aThr]SD[Bip(2'-Et-4'-OMe)][2F‑APPA] (also: reduced (CH2) bond between 10 and 11) [Seq. ID. No. 188: CH3OCO-H-Aib-QG-T(allo)-(α-Me-2F-Phe)-T(allo)-SD-Bip(OMe)-(CH2)-(2F-APPA)]	5 pmol/ml/µg prt	3 pmol/ml/µg prt	1 pmol/ml/µg prt	0 pmol/ml/µg prt	0 pmol/ml/µg prt
H-HSQGTFTSD[Bip(2'-Et-4'-OMe)][hhPhe]-NH2 [Seq. ID. No. 5: HSQGTFTSD-Bip(OMe)-(APPA)]	6 pmol/ml/µg prt	5 pmol/ml/µg prt	3 pmol/ml/µg prt	0 pmol/ml/µg prt	0 pmol/ml/µg prt
H[Aib]QG[aThr][αMePhe(2-F)][aThr]SD[Bip(2'-Et-4'-OMe)][hhPhe] (also: thioamide bonds between residues 9-10 and 10-11) [Seq. ID. No. 177: H-Aib-QG-T(allo)-(α-Me-2F-Phe)-T(allo)-SD-(C═S)-Bip(OMe)-(C═S)-(APPA)]	0 pmol/ml/µg prt	0 pmol/ml/µg prt	0 pmol/ml/µg prt	0 pmol/ml/µg prt	0 pmol/ml/µg prt
H[Aib]QG[aThr][αMePhe(2-F)][aThr]SD[Bip(2'-Et-4'-OMe)][2F‑APPA] (also: reduced (CH2) bond between 10 and 11) [Seq. ID. No. 191: H-Aib-QG-T(allo)-(α-Me-2F-Phe)-T(allo)-SD-Bip(OMe)-(CH2)-(2F-APPA)]	4 pmol/ml/µg prt	2 pmol/ml/µg prt	2 pmol/ml/µg prt	0 pmol/ml/µg prt	0 pmol/ml/µg prt
H[Aib]QGTFTSD[Bip(2'-Et-4'-OMe)][2F,4CF3‑APPA] [Seq. ID. No. 65: H-Aib-QGTFTSD-Bip(OMe)-(2F,4CF3-APPA)]	10 pmol/ml/µg prt	8 pmol/ml/µg prt	6 pmol/ml/µg prt	4 pmol/ml/µg prt	1 pmol/ml/µg prt
H[Aib][CNB]GTFTSD[Bip(2'-Et-4'-OMe)][2,4‑diF‑APPA] (reading uncertain) [Seq. ID. No. 78: H-Aib-(CNB)-GTFTSD-Bip(OMe)-(2,4-diF-APPA)]	22 pmol/ml/µg prt	21 pmol/ml/µg prt	20 pmol/ml/µg prt	18 pmol/ml/µg prt	18 pmol/ml/µg prt
Moc-H[Aib]QG[aThr][αMePhe(2-F)][aThr]S[NMeD][NMeBip(OMe)][NMeAPPA] (reading uncertain)	10 pmol/ml/µg prt	8 pmol/ml/µg prt	6 pmol/ml/µg prt	4 pmol/ml/µg prt	1 pmol/ml/µg prt
